Test results: patent US20230102344A1 (published 2023)

Columns and labels:
[1] = target: T1, TCRvβ 6-5 expressed on cells (TCRvβ 6-5+ Jurkat cells; human T cells) (human); experiment: cell binding
T1 chain: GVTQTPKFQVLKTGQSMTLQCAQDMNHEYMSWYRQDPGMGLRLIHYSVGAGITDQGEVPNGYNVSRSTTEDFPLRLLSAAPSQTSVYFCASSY

[2] = target: T1, TCRvβ 6-5 expressed on cells (TCRvβ …); experiment: FACS cell binding
[3] = target: CD33 expressed on cells (MOLM-13, MV411, HL60) (human, UniProt P20138 18-364); experiment: cell binding
CD33 expressed on cells (MOLM-13, MV411, HL60), sequence (P20138 18-364): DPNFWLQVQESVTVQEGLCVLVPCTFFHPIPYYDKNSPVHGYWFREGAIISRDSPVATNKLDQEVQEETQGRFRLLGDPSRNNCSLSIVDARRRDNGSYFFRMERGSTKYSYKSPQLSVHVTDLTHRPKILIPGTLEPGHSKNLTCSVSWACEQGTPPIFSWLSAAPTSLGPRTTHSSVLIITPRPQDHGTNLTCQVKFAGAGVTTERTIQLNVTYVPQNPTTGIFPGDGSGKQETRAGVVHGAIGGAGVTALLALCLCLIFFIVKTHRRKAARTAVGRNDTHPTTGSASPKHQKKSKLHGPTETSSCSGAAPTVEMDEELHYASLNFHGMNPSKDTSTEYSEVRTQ

EC50 [1]: 0.91 nM | EC50 [2]: 0.908 nM | EC50 [3]: 0.13 nM
B1: BJM0387 (bispecific antibody)
heavy: QVQLVQSGAEVKKPGSSVKVSCKASGYSFTTYYIHWVRQAPGQGLEWMGWFFPGSGNIKYNEKFKGRVTITADTSTSTAYMELSSLRSEDTAVYYCAGSYYSYDVLDYWGQGTTVTVSSGGGGSGGGGSGGGGSGGGGSDIQMTQSPSFLSASVGDRVTITCKASQNVGINVVWHQQKPGKAPKALIYSSSHRYSGVPSRFSGSGSGTEFTLTISSLQPEDFATYFCQQFKSYPLTFGQGTKLEIKGGGGSQVQLVQSGAEVKKPGSSVKVSCKASGYTFTDYNMHWVRQAPGQGLEWIGYIYPYNGGTGYNQKFKSKATITADESTNTAYMELSSLRSEDTAVYYCARGRPAMDYWGQGTLVTVSS
light: DIQMTQSPSSLSASVGDRVTITCRASESVDNYGISFMNWFQQKPGKAPKLLIYAASNQGSGVPSRFSGSGSGTDFTLTISSLQPDDFATYYCQQSKEVPWTFGQGTKVEIK
